In paper PMC7238552 (Cell, 2020):

Assays:
[1] = molecular target: human integrin αvβ8 ectodomain (for structural studies) (Homo sapiens, UniProt P06756;P26012); assay: cryo-EM structure
[2] = molecular target: recombinant integrin αvβ3 (R&D Systems) (Homo sapiens (assumed), UniProt P06756;P05106); assay: ELISA
[3] = molecular target: recombinant integrin αvβ1 (R&D Systems) (Homo sapiens (assumed), UniProt P06756;P05556); assay: ELISA
[4] = molecular target: recombinant integrin αvβ5 (R&D Systems) (Homo sapiens (assumed), UniProt P06756;P18084); assay: ELISA
recombinant integrin αvβ5 (R&D Systems), sequence (P06756 31-1048, chain 1 of 2): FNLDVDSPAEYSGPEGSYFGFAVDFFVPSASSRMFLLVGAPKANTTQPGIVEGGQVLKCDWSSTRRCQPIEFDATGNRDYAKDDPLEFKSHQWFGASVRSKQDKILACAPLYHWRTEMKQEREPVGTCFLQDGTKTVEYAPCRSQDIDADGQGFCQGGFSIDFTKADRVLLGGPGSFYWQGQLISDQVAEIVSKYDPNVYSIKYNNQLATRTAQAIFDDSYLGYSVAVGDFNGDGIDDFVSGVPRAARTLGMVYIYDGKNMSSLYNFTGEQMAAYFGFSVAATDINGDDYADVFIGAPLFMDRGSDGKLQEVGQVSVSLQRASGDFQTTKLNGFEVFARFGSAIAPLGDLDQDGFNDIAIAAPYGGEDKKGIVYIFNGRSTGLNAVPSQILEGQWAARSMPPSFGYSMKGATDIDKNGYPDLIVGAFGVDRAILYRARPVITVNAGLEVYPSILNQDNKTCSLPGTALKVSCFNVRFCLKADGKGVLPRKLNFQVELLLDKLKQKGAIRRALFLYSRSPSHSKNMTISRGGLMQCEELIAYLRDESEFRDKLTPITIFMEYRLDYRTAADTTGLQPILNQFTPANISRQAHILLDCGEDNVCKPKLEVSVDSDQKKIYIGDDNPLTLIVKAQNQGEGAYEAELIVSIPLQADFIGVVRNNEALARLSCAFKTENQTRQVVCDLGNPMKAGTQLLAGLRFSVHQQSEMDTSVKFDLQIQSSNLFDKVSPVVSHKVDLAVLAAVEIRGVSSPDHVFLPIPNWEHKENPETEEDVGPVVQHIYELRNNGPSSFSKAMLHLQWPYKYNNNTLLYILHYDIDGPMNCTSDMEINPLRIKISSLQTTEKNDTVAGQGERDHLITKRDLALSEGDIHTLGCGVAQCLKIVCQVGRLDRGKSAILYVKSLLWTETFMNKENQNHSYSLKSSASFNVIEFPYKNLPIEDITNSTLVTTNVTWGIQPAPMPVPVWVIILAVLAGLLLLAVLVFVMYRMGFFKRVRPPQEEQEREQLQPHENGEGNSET
recombinant integrin αvβ5 (R&D Systems), sequence (P18084 24-719, chain 2 of 2): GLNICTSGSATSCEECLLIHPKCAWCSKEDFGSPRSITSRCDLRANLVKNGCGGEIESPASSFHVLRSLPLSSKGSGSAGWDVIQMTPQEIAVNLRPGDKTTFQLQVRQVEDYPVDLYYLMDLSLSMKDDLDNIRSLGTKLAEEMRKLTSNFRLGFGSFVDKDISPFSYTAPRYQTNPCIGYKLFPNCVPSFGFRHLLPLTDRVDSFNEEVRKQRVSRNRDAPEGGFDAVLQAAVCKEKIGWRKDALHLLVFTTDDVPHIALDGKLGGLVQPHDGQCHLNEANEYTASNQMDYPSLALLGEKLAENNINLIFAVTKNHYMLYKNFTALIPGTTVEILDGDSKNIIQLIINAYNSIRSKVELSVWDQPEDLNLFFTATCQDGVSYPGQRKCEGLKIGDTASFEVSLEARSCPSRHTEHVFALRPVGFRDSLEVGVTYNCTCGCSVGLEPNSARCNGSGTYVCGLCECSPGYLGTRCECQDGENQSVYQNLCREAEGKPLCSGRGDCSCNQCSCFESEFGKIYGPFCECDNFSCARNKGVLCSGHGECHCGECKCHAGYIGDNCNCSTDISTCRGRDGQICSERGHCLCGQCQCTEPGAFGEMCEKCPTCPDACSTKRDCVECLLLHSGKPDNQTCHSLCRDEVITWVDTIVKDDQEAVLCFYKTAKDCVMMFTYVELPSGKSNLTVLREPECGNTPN

recombinant integrin αvβ3 (R&D Systems), sequence (P06756 31-1048, chain 1 of 2): as the sequence (P06756 31-1048, chain 1 of 2) above
recombinant integrin αvβ3 (R&D Systems), sequence (P05106 27-718, chain 2 of 2): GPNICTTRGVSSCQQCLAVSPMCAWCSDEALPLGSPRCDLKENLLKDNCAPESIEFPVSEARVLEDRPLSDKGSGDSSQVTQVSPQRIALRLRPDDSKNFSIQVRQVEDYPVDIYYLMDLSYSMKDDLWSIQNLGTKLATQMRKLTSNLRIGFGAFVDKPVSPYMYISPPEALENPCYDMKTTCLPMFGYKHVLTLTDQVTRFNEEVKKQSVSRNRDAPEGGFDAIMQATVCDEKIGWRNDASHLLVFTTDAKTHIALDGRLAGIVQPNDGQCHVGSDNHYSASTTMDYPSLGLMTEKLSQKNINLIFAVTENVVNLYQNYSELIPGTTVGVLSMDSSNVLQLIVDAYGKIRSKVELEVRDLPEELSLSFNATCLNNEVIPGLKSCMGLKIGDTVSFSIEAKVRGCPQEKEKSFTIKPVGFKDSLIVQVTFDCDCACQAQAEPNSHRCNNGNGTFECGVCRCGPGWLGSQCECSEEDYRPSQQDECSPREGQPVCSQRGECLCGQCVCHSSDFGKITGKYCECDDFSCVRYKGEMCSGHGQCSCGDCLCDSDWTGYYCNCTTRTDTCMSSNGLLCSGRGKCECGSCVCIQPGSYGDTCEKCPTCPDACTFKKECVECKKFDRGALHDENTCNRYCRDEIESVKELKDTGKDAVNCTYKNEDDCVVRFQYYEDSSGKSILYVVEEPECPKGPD
recombinant integrin αvβ1 (R&D Systems), sequence (P06756 31-1048, chain 1 of 2): as the sequence (P06756 31-1048, chain 1 of 2) above
recombinant integrin αvβ1 (R&D Systems), sequence (P05556 21-728, chain 2 of 2): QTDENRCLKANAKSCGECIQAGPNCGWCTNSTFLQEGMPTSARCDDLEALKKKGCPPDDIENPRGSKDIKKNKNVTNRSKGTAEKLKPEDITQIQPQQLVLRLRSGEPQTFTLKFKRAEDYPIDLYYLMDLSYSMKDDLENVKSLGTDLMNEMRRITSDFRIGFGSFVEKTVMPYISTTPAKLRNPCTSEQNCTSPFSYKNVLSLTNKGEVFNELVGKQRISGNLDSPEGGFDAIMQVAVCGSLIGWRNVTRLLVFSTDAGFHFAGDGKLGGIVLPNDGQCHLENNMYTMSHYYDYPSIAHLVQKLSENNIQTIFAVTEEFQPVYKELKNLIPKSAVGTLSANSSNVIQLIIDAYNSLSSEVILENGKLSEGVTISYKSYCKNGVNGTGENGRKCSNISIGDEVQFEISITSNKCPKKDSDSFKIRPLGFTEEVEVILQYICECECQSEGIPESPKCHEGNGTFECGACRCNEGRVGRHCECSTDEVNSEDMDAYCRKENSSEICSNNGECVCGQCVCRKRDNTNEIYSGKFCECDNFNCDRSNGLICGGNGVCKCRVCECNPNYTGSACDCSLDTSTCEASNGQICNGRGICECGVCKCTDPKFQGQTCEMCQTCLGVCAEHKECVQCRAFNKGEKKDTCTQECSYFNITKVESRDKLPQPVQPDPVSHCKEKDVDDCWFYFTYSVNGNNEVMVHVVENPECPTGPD
human integrin αvβ8 ectodomain (for structural studies), sequence (P06756 31-992, chain 1 of 2): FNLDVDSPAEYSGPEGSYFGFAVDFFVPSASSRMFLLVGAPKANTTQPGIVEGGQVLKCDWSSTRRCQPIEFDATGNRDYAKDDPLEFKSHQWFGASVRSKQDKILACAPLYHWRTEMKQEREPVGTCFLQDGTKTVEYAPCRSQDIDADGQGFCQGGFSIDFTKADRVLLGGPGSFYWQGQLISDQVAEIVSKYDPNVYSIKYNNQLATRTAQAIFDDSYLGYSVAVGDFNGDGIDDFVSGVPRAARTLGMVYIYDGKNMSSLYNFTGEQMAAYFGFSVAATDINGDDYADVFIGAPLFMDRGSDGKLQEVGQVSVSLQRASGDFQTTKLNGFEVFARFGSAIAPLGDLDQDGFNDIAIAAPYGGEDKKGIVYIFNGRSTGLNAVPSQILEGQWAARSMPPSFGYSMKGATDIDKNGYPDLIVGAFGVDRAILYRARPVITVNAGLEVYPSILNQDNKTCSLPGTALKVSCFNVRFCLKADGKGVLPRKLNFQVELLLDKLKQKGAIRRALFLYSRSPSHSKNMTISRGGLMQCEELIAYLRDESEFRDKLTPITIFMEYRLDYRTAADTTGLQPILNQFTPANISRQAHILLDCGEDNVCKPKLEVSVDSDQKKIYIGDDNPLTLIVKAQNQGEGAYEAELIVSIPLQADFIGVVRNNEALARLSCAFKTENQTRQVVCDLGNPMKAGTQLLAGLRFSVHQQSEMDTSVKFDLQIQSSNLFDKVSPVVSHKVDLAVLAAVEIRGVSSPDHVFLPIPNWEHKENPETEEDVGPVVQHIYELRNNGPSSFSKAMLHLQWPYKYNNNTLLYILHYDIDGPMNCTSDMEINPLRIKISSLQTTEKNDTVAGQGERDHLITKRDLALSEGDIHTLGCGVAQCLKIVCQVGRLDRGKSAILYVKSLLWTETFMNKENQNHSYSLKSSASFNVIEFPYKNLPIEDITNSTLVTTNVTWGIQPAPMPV
human integrin αvβ8 ectodomain (for structural studies), sequence (P26012 43-684, chain 2 of 2): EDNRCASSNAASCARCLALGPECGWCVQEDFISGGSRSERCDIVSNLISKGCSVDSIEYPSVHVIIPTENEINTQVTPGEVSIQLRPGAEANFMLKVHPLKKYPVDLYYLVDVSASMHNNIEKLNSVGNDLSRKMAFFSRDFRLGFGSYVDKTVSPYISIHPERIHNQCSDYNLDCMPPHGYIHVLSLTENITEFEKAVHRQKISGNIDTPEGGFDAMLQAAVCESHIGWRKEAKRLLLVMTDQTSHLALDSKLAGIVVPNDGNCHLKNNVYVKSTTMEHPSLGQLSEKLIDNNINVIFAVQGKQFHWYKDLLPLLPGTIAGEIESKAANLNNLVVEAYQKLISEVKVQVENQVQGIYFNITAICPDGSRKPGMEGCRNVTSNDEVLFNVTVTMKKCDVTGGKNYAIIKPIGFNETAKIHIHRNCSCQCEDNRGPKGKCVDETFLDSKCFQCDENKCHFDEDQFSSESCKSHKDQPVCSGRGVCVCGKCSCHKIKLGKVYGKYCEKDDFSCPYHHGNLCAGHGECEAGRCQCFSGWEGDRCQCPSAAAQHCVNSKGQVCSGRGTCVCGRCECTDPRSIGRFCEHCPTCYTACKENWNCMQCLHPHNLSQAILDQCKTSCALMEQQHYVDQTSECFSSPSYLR

| Binder | binding result [1] | binding result [2] | binding result [3] | binding result [4] |
| --- | --- | --- | --- | --- |
| C6-RGD3 Fab (Fab, V domains shown) VH: QIQLVQSGPELKKPGETVKISCKASGYTFTDYSMHWVKQAPGKGLKWVARINTETGEPTFADDFRGRFAVSLETSASTAYLQINNLKNEDTATYFCAIFYYGRDSWGQGTTLTVSS VL: DIVMTQSPSSLAVSAGEKVTMSCKSSQSLLGRGDLGRLKKNALAWYQQKPGQSPRLLIYWASTRESGVPDRFTGSGSGTDFTLTISSVQAEDLAVYYCKQSYNLLSFGAGTKLELK | binds |  |  |  |
| C6-RGD3 antibody (mouse IgG2a) (antibody, V domains shown) VH: QIQLVQSGPELKKPGETVKISCKASGYTFTDYSMHWVKQAPGKGLKWVARINTETGEPTFADDFRGRFAVSLETSASTAYLQINNLKNEDTATYFCAIFYYGRDSWGQGTTLTVSS VL: DIVMTQSPSSLAVSAGEKVTMSCKSSQSLLGRGDLGRLKKNALAWYQQKPGQSPRLLIYWASTRESGVPDRFTGSGSGTDFTLTISSVQAEDLAVYYCKQSYNLLSFGAGTKLELK |  | no binding | no binding | no binding |
